Laboratory results taken from the supplement of paper PMC10567573.
± gives the standard deviation.

Experiment: protein stability index of a GFP-peptide fusion (GPS, HEK-293T) (PSI 1-6); higher = more stable
Conditions: c terminus: a fixed tail appended
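Note: 24-mer peptide tiles fused after GFP, lentivirally expressed, FACS-sorted into six equal bins by GFP/DsRed ratio, decoded by Illumina sequencing, PSI is the read-weighted mean bin number.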

Sequence | protein stability index (treatment: DMSO) | protein stability index (treatment: MLN4924 1 uM, 8 h)
DAAIHGFRETEKSRWSEASRAILQ [ALKBH7] | 3.8 ± 0.51 | 3.83 ± 0.66
FENMSNDDAVRVLREIVHKPGPIT [DVL3] | 3.65 ± 0.15 | 3.7 ± 0.15
PVLEDNYMYLVIEELTREAVAVDV [HAGHL] | 2.34 ± 0.57 | 2.47 ± 0.17
GEQVGRGPGFHAGTSALWRHLRSA [ZBED3] | 3.35 ± 0.13 | 3.27 ± 0.27
PGRDRVGREDEDGWETRGDRKARK [HES6] | 5.49 ± 0.26 | 5.48 ± 0.17
EDRKLPAPGADVKVHRARKTMPKS [EHMT1] | 5.28 ± 0.31 | 5.19 ± 0.18
TSAITASRSESPPPLSDPKQAKVV [BRD3] | 5.24 ± 0.22 | 5.21 ± 0.077
GGAICGGPDHRLRLWRLFQTLDVN [SLC25A25] | 2.33 ± 0.27 | 2.48 ± 0.42
QILKDTKSITSAMNELQHDLDVVS [TPH1] | 3.82 ± 0.24 | 3.97 ± 0.092
KRKTFNKVLGHVNNILISAVLPTA [GDAP1] | 2.49 ± 0.14 | 2.42 ± 0.076
FKKHDADKVGLITLSDWAAAVESV [PPEF2] |  | 2.64 ± 0.46
LSLPARNQAGYFMLPTVITDIKDE [ALDH8A1] | 3.81 ± 0.39 | 3.88 ± 0.27
